Results: the supplement of paper PMC10567573

B1: PPP2R2C (parent)
chain: YSSSKGSLRLCDMRAAALCDKHSK

Variants of: B1
Test: protein stability index of a GFP-peptide fusion (GPS, HEK-293T) (PSI 1-6); higher = more stable
Settings: c terminus: a fixed tail appended
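Note: lentivirally expressed fusions sorted by FACS into six bins by GFP to DsRed ratio, PSI derived from sequencing read proportions per bin multiplied by bin number.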

Protein stability index, by site and new letter:
L10: P 3.52 | D 4.23 | V 3.54 | F 2.22 | R 3.16 | S 3.54 | Y 2.02 | C 2.95 | G 3.53 | T 3.35 | H 3.04 | M 1.92 | I 2.9 | A 3.72 | W 2.21 | K 3.1 | Q 3.79 | E 4.47 | N 3.67
D12: K 2.54 | E 2.71 | I 1.6 | R 2.36 | Q 2.76 | Y 2.1 | L 1.82 | A 2.32 | P 2.25 | S 2.29 | F 1.52 | G 1.93 | M 1.78 | T 2.69 | C 1.99 | N 2.63 | V 2.11 | W 2.7 | H 3.2
S7: R 2.04 | K 1.07 | I 1.34 | A 2.9 | G 4.06 | M 1.76 | P 1.89 | N 1.65 | V 2.24 | Q 2.04 | T 1.8 | E 1.56 | L 1.49 | C 1.76 | H 2.92 | Y 1.94 | W 3.69 | D 2.24
K5: V 1.55 | Y 1.52 | W 2.11
G6: Y 1.52 | H 2.04 | S 1.82 | W 1.76 | V 2.21 | L 2.18 | D 2.73 | I 2.31 | M 1.85 | N 1.94 | E 2.68 | T 2.07 | F 1.81 | Q 2.39 | K 2.2 | P 2.48 | A 1.91 | R 2.05 | C 1.95
M13: C 1.73 | E 2.49 | R 1.68 | H 1.56 | Q 1.83 | I 2.08 | A 1.52 | P 2.21 | N 2.05 | V 2.07 | T 2.21 | S 1.65 | F 1.46 | Y 3.27 | D 2.37 | G 2 | K 2.08 | L 2 | W 1.61
R14: D 1.55 | G 2.13 | C 2.89 | E 2.3 | H 2.34 | F 2.27 | K 1.68 | M 2.29 | Q 1.27 | L 2.18 | A 2.03 | N 2.48 | P 1.8 | S 2.02
R9: C 3.28 | Q 3.3 | K 3.11 | I 1.7 | E 3.7 | T 3.28 | V 2.91 | H 2.42 | A 2.63 | F 2.37 | M 1.9 | G 1.9 | P 3.11 | N 3.45 | S 3.81 | Y 1.76 | L 3.61 | D 4.21
L8: V 1.95 | A 1.75 | K 2.17 | E 2.41 | F 2.5 | P 2.27 | S 2.02 | R 1.51 | C 2.5 | M 1.79 | D 2.76 | G 2.19 | Y 1.36 | I 1.78 | N 2.36 | Q 1.89 | H 2.64 | T 1.97 | W 2.39
C11: V 1.8 | D 3.74 | Q 2.97 | R 3.31 | A 2.96 | E 3.85 | P 4.05 | K 3.07 | S 3.16 | W 1.2 | Y 2.75 | H 3.63 | I 1.42 | M 2.29 | G 2.92 | L 2.36 | N 3.72 | T 2.88 | F 1.67
